For 2 substances, Kd results are on record in publication PMC2884070.

For orientation: Kd means the constant that tells how readily two partners part at equilibrium.

This test has as its target GST-CypA (cyclophilin A) (human) (UniProt P62937). Put plainly: radioligand binding.

Chain of GST-CypA (cyclophilin A) (human) (P62937 whole entry): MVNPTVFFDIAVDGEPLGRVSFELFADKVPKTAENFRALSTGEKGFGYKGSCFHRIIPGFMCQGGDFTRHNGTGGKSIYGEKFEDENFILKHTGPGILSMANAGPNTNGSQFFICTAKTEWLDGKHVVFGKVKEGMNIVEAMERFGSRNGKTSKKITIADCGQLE

Consider “NS5A Con1 D320E-His (full length) (natural protein)”, for which the Kd was 124 µM. To “full-length NS5A MD2b-1-His (genotype 2b) (natural protein)” belongs 112 µM.
